Experimental data as given in paper PMC4369429.

Target: Steroid receptor coactivator 3 (SRC-3), recombinant, wild type (UniProt Q9Y6Q9)
Test: cryo-EM structure

Sequence of UniProt Q9Y6Q9 (Q9Y6Q9 whole entry): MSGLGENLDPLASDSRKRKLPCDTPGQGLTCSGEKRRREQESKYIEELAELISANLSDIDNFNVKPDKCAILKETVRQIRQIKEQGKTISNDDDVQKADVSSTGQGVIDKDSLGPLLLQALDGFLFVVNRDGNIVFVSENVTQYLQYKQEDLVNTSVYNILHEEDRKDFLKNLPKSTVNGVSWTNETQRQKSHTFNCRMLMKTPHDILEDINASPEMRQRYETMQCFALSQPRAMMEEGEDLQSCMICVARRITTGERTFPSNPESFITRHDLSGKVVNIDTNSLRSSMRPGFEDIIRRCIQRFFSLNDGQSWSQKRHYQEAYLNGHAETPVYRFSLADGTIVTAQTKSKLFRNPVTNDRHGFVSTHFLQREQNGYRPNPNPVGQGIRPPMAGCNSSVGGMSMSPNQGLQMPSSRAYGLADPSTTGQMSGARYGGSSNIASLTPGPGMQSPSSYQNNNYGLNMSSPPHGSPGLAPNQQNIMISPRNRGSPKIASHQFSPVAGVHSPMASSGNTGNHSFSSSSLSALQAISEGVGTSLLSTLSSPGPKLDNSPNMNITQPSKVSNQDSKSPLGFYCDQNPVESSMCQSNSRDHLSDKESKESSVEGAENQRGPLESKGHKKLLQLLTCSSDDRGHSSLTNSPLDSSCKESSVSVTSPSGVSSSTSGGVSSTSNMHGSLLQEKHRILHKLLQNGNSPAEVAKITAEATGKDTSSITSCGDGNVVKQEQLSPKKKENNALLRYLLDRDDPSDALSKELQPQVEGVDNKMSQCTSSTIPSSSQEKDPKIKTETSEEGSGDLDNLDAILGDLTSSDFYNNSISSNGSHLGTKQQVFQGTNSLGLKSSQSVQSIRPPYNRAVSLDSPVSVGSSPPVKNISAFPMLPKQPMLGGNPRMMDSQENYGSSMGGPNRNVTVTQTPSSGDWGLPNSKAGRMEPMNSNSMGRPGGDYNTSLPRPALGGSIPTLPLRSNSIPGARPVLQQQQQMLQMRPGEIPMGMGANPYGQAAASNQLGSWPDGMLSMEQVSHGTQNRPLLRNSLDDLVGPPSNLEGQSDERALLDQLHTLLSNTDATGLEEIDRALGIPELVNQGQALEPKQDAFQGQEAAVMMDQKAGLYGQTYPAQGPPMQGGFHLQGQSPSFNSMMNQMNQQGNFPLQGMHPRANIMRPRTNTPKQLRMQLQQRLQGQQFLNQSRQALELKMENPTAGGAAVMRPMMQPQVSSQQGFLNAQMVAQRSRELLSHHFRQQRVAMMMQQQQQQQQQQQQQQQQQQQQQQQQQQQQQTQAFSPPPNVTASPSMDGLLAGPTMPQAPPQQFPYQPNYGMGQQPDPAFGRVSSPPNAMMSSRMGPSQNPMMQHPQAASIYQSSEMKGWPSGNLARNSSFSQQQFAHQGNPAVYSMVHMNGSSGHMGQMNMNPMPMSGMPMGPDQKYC

stoichiometry N (p300 molecule per two SRC-3): 1
Substance: p300, recombinant, Q09472 1-2414
